The nanobody polyreactivity screen of Harvey et al. (2022)

assay: yeast display, Sf9 membrane polyspecificity reagent, FACS + sequencing; frameworks hold sequencing errors
Procedure, shortened: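 Nanobodies came from a synthetic yeast display library in Saccharomyces cerevisiae BJ5465, induced with galactose for 36–48 hours and stained for 1 hour at 4 °C with 10% biotinylated, detergent-solubilized Sf9 membrane reagent. Cells were enriched on streptavidin microbeads and then FACS-sorted, with low and high (top ~1%) gates set on anti-HA fluorescence for expression and streptavidin fluorescence for reagent binding. Each polyreactivity label reflects the gate a clone came from. Genes were amplified by colony PCR, sequenced by MiSeq 2 × 250 and filtered by CDR length.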

Sequence	polyreactivity (PSR sort gate)
QVQLVESGGGLVQAGGSLRLSCAASGFIFAHNAMGWYRQAPGKVRELVAAISWGSGSTYYADSVKGRFTISRDNAKITVYLQMNSLKPEDTAVSYCAARAVRYYAWVRGGWTSFDYWGQGTQVTVSS	high polyreactivity
QVQLVESGGGLEQAGGSLRLSCAASGRTFQYYTMGLYRQAPGKERELVAAISTGGSTHYSDSVKGRFTISRDNAKNTVYLEMFSLKPVDTAVYYCAALWSRRRSRPRFPGDFWGQGTQLTVSS	high polyreactivity
QVQLVESGAGLVQAGGSLRLSCAASGIIFSDNAMGWYRQAPGKEMELVAAIDWSGGSTYYADSVKGRFTISRDNAKNTVYLHMNSLKPEDTAVDYCAAEYRDYVPVNVTGDYWGQGTQVTVSS	low polyreactivity
QVQLVESGGGIVQAGGSLPLICAASGFTFDWYALGWYRQAPGKERELVAAITTSGGTTYYADSVKGRFTMSRDNAKITVYLQMNSLKPEDTAVFYCAADADTDVFYILQEYDYWGQGTQVTVSS	low polyreactivity
QVQLVESGGGIVQAGGSLPLSCAASGIIFSVNAMGWYRQAPGKERELVAAITYSGGSTYYADSVKGRYTISRDNAKNTVYLQMNSLKPEVTAVYYCAAETYSSGEWYDYWGQGTQVTVSS	high polyreactivity
QVQLVESGGGLVQAGGSLRISCAASGRTLRYYAMGWYRQAPGKERELVAAITSSDRTYYADSVKGRFTISRDNAKNTVYLQMNSLKPEDTAVYYCAAYRATQFGYYYWGQGTQVTVSS	high polyreactivity
QVQLVESGGAIVQAGGSHRLRCAASGSILGRYAMAWYRQAPGKERELVAAISRRGGSTTYADSVKGRFTISRDNAKNTVYFQMNSLKPEDTALYYCNTVSSWGRNYQDEYDYWGQGTQVSVSS	high polyreactivity
QVQLVESGGGLLQAGGSLRLSCAASGSTFHRNAMGWYRQAPGKERELVAAISWRAGSTYYADSVKGRFTISRDNAKNTVYLQMNSLKPEDTAVYYCNAVERYWDYGYWGQGTQVTVSS	low polyreactivity
QVQLVESGGGLVQAGGSLRLSCAASGRIYYWYDMGWYRQAPGKERELVAAISWSGGSTSYADSVKGRFTISRDNAKNTVYLQMNSLKPEDTAVYYCNADLTQYLGPVYEYGYWGQGTQVTVSS	low polyreactivity
QVQLVESGGGLVQAGGSLRLSCAASGYTFSRNAMGWYRQAPGKERELVAAITGSGGSTYYADSVKGRFTISRDNAKNTVYLQMNSLKPEDTAVYYCATEVKRGYVGFDYWGQGTQVTVSS	low polyreactivity
QVQLVESGGGLVQAGGSLRLSCAASGIILTVYAMGWYRQAPGKERELVATISRRGGNTYYADSVKGRFTISRDNAKNTVYLQMNSLKPEDTAVYYCNKAYQYGGYYYWGQGTQVTVSS	high polyreactivity
QVHLVESGGGLVQAGGSLRLSCAASGITFRSYAMGWYRQAPGKERELVAAISTSGGRTYYADSVKGRFTISRDNAKNTVYLQMNSLKPEDTAVYYCNKVGGVYGYYAYGLGYWGQGTQVTVSS	high polyreactivity
QVQLVESGGGLVQAGGSLRLSCAASGRISSYYAMGWYRQAPGKEREFVAAITRSSGSTYYADSVKGRFTISRDNAKNTVYLQMNSLKPEDTAVYYCAADYYWTTFSRFDYWGQGTQVTVSS	low polyreactivity
QVQLVESGGGLVQAGGSLRLSCAASGRILFHYAMGGSRPAPGKERELVAAITWRGGGTHYADSVKGRFTISRDNAKNTVYLQMNSLKPEDNAVYYCAADGWTYVYDYGYWGQGTQVTVSS	low polyreactivity
QVQLVESGGGLVQAGGSLRLSCAASGSIFRSYAMGWYSQAPGKERELVASISRRGGSTYYADSVKGRFTMSRDHAKNTVYLQMNSLKPEDTAVYYCAAVRYNSRVSTTPSEMYYWGQGTQVTVSS	low polyreactivity
QVQLVESGGGLVQAGGSLRLSCAASGFTFNSYAMGWYRQAPGKERELLAAISRIGGITYYADSVKGRFTISRDNAKNTVYLQMNSLKPEDTAVYYCNTASVYVYTGRYDYWGQGTQVTVSS	high polyreactivity
QVQLVESGGGLDQAGGSLRLSCADSGRTFYIYAMGWYRQAPGKERELVAAITSVGSTNYADSVKGRFTISRDNAKNTVYLQMNSLKPEDTAVYYCAAESTEGTSGDYDYWGQGTQVTVSS	low polyreactivity
QVQLVESGGGLVQAGGSLRLSCAASGSTFDYYAMGWYRQAPGKERELVAAISSSGSRTHYADSVKGRFTISRDNAKNTVYLQMNSLKPEDTAVYYCATYTKYWRYPYDYWGQGTQVTVSS	high polyreactivity
QVQLVESGGGLVQAGGSLRLSCAASVSTFQYNARGWYRQAPGKEMELVAAITSRGGSTYYADSVKGRFTISRDNAKNTVYLQMNSLKPEDTALYYCAALLSKSGRFDRAKVTAYGYWGQGTQVTVSS	low polyreactivity
QVQLVESGGGLVQAGGSLRLSCASSRFNFRSYAMGWYRHPPGKERELVAAISRSGGSTYYADSVKGRFTISRDNAKNTVYLQMNSLKPEDTAVYYCAAEYRIPYFFTYGYWGQGTQVTVSS	high polyreactivity

Sequence	polyreactivity (PSR sort gate)
QVQLVESGGGLVQAGGSLRLSCAASGSIFYYNAMGWYRQAPGKERELVAAISQRGTRTYYADSVKGRFTISRDNAKNTVYLQMNSLKPEVTAVYYCAAESSSYYGYYIYYYWGQGTQVTVSS	high polyreactivity
QVQLVESGGGLVQAGGSLRLSCAASGRTFGGNAMGWYRQAPGKERELVAAINSDGGRTYYADSVKARFTISRDNAKNTVYLQMNSLKPEDTAVYYCNRAYRKSYTGYGYDYWGQGTQVTVSS	high polyreactivity
QVQLVESGGGLVQAGGSLRLICDASGSIFRYYAMGWYRQAPGKERELVARISWRAGSTYADSVKGRFTISRDYAKNTVYLQINSQKPEDTAVYYCNADAHKDSWVGTSEYEYWGQGTQVTVSS	high polyreactivity
QVQLVESGGGLVQAGGSLRLSCAASGSIYGDNAMGWYRQAPGKERELVAAINYNGGRTYYADSVKGRFTISRDTAKNTVYLQMNSLKPEDTAVYSCAKDNYQAPVQQYPFDYWGQGTQVTVSS	low polyreactivity
QVQLVESGGGLVQAGGSLRLSSAASGFTFKAYVMGWYRQAPGKERELVAASTRSGSSTYYADSVKGRFTISRDNGKNSVYLQMYSLKPEDTAVYYCAARYTQRPRRNYWGQVTQVTVSS	high polyreactivity
QVQLVESGRGLVQAGGILRLFCAASGSTFVSYAIAWYRQAPGKERELVAAISRSGGSTYYADSVKGRFTISRDNAKNTVYLQMNSLKTEDTAVYYCAAVRYWSDYDYWGQGTKVTVSS	high polyreactivity
QVQLVESGGGLVQAGGSLRISCAASGSIFASKTMGWYRQAPGKERELVAGITKIGSSTYYADSVKGRFTISRDNAKNTVYLQMNSLKPEETAVYYCNAYLSPKQPLSPPEPTFEGGYWGQGTQVTVSS	low polyreactivity
QGQLVESGGGLVQAGVTLRLSCAASGITFPWYAMGWYRQAPGKERELVASITSGGSTNYADSVKGRFTISRDNSKNTVYLQMNSLKPEDTAVSYCARDWYSPVYWAAGYDAWGSGYDYWGQGTQVTVSS	high polyreactivity
QVQHVESGGGLVQAGGSLRLSCAASGSTFSRYTMGWYRQAPGKERELVAGISRRGGITYYADSVKGRFTISRDNAKNTVYLQMNSLKPEDTAVYYCARTDVYWYGYPYDYWGQGTQVTVSS	high polyreactivity
QVQLVESGGGLVQAGGSLRLSCAASGRIFGNNAMGWYRQAPGKERELVAAITSGGSTNYADSVKGRFTISRDNAKNTVYLQMNSLKPEDTAVYYCAKRWVYKYRHYDYWGQGTQVTVSS	low polyreactivity
QVQLVESGGGLVQAGGSLRLSCAASGFTFYRYAMGWYRQAPGKERELVAVITRGGSTNYADSVKGRFTISRDNAKNTVYLQMNSLKPEDTAVYYCAARWFAGDWDYWYDYWGQGTQVTVSS	low polyreactivity
QVQLVESGGGLVQAGGSLRLSCAASGRTFDYNAMGWYRQAPGKERELVAAISGSGTRTFYADSVKGRFTISRDNAKNTVYLQMNSLKPEDTAVYYCAASHGWSKSIFYYWGQGTQVTVSS	high polyreactivity
QVQLVESGGGLVQAGGSLRVSCAASGSTFTNYAMGVYRQAPRKERELIARITYNVGRTYYADSVKGRFTISRDNAKNTVYLQMNSLKPEDTAVYYCAAGVGWRYRVRWYYYLGDYWGQVTQVTVSS	high polyreactivity
QVQLVESGGGLDQAGGSLRLSCAASGSTIHYYAMGWYRQAPRKERELVAVISSGGSTYYADSVKGRFTISRDNAKNTVYLQMNSLNPEDTAVYYCAKDYRDYNRGWYDYWGQGTQVTVSS	low polyreactivity
QVQLVESGGGLVQAGCSLRLSCAASGRTFNGYAMGWYRQAPGKERELVAAIASEGDTNYADSVKGRFTISRDNAKNTVYLQMNSLKPEDTAVYYCNADITRIWHFKYDYWGQGTQVTVSS	high polyreactivity
QVQLVESGGGLVQAGGSLRLSCAASGRTFYFNAMGWYRQAPGKERELVAAITNSGGSTYYADSVKGRFTISRDNAKNTVYLQMNSLKPEDTAVYYCAATYKDGYWLVPGYGYWGQGTQVTVSS	low polyreactivity
QVQLVESGGGLVQAGGSLRLSCAASGRTFSVNDMGWYRQAPGKERELVAAISFSGGSTYYADSVKGRFTISRDNAKNTVYLQMNSLKPEDTAVYYCAARVRWWSPGGYWGQGTQVTVSS	high polyreactivity
QVQLVESGGGLVQAGGSLRLSCAASGRIFPFYAMGWYRPATWIQRELVAAITSSGGRTYYADSVKGRFTISRDIAKNTVYLQMNSLKPEETAVYYCAAGHGCYYRYFSQRDYWGQGTQVTVSS	low polyreactivity
QVQLVESGGGLVQAGGSLRLSCAASGRIFGVYAMGWYRQAPGKERELVAAISTRGGSTYYADSVKGRFTISRDNAKNTVYLQMNSLKPEDTAVYYCAAKSNNIATMDYWGQGTQVTVSS	low polyreactivity
QVQLVESGGGLVQAGGSLRLSCAASGRIFSYYAMGWYRPAPGTERELVAAITRAGGTNYADSVKGRFTISRDNAKNTVYLQMNSVKPEDTAVYYCAADRSRYRYNAPRYAYDYWGQGTQVTVSS	high polyreactivity
